# Source: patent US20090305963A1, “Lipocalin 2 for the Treatment, Prevention, and Management of Cancer Metastasis, Angiogenesis, and Fibrosis” (priority 2005, published 2009)
# B1: lipocalin 2: human lipocalin 2 cDNA (HA tagged) in pcDNA3.1, stably expressed in 4T1-ras cells (RL clone); iron-siderophore binding protein (protein, UniProt P80188 21-198, looked up)
# Neutrophil …: QDSTSDLIPAPPLSKVPLQQNFQDNQFQGKWYVVGLAGNAILREDKDPQKMYATIYELKEDKSYNVTSVLFRKKKCDYWIRTFVPGCQPGEFTLGNIKSYPGLTSYLVRVVSTNYNQHAMVFFKKVSQNREYFKITLYGRTKELTSELKENFIRFSKSLGLPENHIVFPVPIDQCIDG
# modifications: HA tag
# Assays:
# E-cadherin mRNA = E-cadherin mRNA by semi-quantitative RT-PCR; type: cell-based, mouse; settings: EV, R and RL cells in vitro
# Procedure: Total RNA was isolated from 4T1 cells in vitro using the SV Total RNA Isolation system (Promega, Madison, Wis.). Tissue RNA was collected with TRIzol® (GibcoBRL, Gaithersburg, Md.). RT-PCR was performed on the Perkin Elmer GeneAmp PCR system 2400 using Omniscript (Qiagen, Valencia, Calif.) for reverse transcription reaction, and Taq DNA polymerase (Qiagen) and primers for mouse E-cadherin (5′-[…]-3′ and 5′-[…]-3′, SEQ ID NO: 5), GAPDH (5′-ACAGTCTTCTGAGTGGCA-3′, SEQ ID NO: 6, and 5′-CCCATCACCATCTTCCAG-3′, SEQ ID NO: 7) and HA-tagged lipocalin 2 (5′-GGAGTACTTCAAGATCAC-3′, SEQ ID NO: 8 and 5′-[…]-3′, SEQ ID NO: 9) for DNA amplification. The PCR conditions were established for DNA amplification in the linear range. RT-PCR products were analyzed on 1% agarose gels.
# VEGF mRNA = VEGF mRNA by semi-quantitative RT-PCR in 4T1 cells; type: cell-based, mouse; settings: RL vs R cells
# Procedure: For VEGF assays, two μg of each RNA sample was reverse transcribed using oligo-dT priming and control reaction was prepared for every sample where the reverse transcriptase was omitted. PCR was performed using Taq DNA polymerase (Qiagen) using primers for mouse VEGF (5′-GTACCTCCACCATGCCAAGT-3′, SEQ ID NO: 10, and 5′-GCGAGTCTGTGTTTTTGCAG-3′ SEQ ID NO: 11), GAPDH (5′-ACAGTCTTCTGAGTGGCA-3′ SEQ ID NO: 6 and 5′-CCCATCACCATCTTCCAG-3′, SEQ ID NO: 7) for DNA amplification. PCR amplification was achieved by initial 94° C. incubation for 5 minutes followed by 25 cycles of 94° C. for 30 seconds, 58° C. for 30 seconds and 72° C. for 30 seconds, with 72° C. for 7 minutes as an extension time. These PCR conditions were established for DNA amplification in the linear range. PCR products were analyzed on 1.5% agarose gels.
# [1] = tested on: serum-response element (SRE); experiment: SRE-luciferase assay; type: cell-based, mouse; settings: RL cells; 48 hour incubation in serum free DMEM
# Procedure: After transient transfection of the plasmids, cells were incubated for 20 hours in 10% FCS and luciferase activity in the cell lysates was determined using a luminometer normalized by sea-pansy luciferase activity under the control of the thymidine kinase promoter. The Dual-Luciferase Reporter Assay System was purchased from Promega (Madison, Wis.) (Hanai et al., J. Biol. Chem. 277:16464-16469, 2002).
# For these experiments, EV and R cells were starved in DMEM without serum for 48 hours. During this time, half of the R cells were incubated with 50 μg/ml of lipocalin 2 protein with iron-loaded siderophore (R+Lipo:Sid:Fe), after which all cells were incubated with 10% FCS containing DMEM for 20 minutes and then harvested for western blotting with phosphospecific antibodies. Signaling events downstream of ERK activation were then monitored with a multi-copy serum-response element (SRE)-luciferase construct introduced into EV, R, and RL (FIG. 6B). For these experiments, an SRE-luciferase assay was performed on 4T1 clones after the 48 hour incubation in serum free DMEM. […] Just like R cells treated with exogenous protein (FIG. 6A), R cells infection with recombinant adenovirus carrying lipocalin 2, but not GFP, reduced SRE-luciferase activity, MEK, and ERK1/2 phosphorylation, without altering ras expression.
# To localize the effect of lipocalin on ras-MAPK signaling, we utilized an adenovirus and expression plasmid encoding a constitutively active MEK (MEK-DD) (Murakami et al., Cell Growth Differ 10:333-342, 1999). MEK-DD adenoviral infection of EV cells led to increased SRE-luciferase activity (increased MAPK activity). […] RL cells in a 6-well plate were infected with an adenovirus carrying the MEK dominant active form (MEK-DD) and a Lac-Z adenovirus at the indicated multiplicities (MOI) in 2% serum including DMEM medium for 48 hours. Cells were then trypsinized, respread on 6-well plate at 5-10% confluency, and incubated with 10% serum including DMEM medium. Cell lysates were collected for western blotting 48 hours after the final plating (FIG. 6D). […]
# [2] = tested on: 4T1 cells injected subcutaneously; experiment: In vivo assay for primary tumor growth and pulmonary metastases; set-up: species or system Balb/c mice
# Procedure: FIG. 4A is a graph showing the effect of lipocalin 2 on 4T1 primary tumor growth. 4T1 clones (EV, R, and RL) were suspended in PBS and injected subcutaneously in the backs of Balb/c mice. Primary tumor size was calculated based upon measurements at 1, 2, and 3 weeks. […] FIGS. 4E-F show graphs depicting the lung weight (FIG. 4E) and the number of metastatic nodules on the lung surface (FIG. 4F).
# 10^7 4T1-(EV, R, and RL) cells were injected subcutaneously in Balb/c mice (Asai et al., Int. J. Cancer. 76:418-422, 1998). Though this model is not the standard orthotopic model used, we have used it extensively in our laboratory to study metastases in lung. Primary tumor volume (V)=a·b·b/2, where a represents the […] tumor diameter. After 3 weeks, lung weights and the number of metastatic nodules on the lung surface were evaluated.
molecule,measurement,setting,value
B1,E-cadherin mRNA,E-cadherin mRNA,remained unchanged
same,ras-augmented VEGF mRNA level,VEGF mRNA,reduced this upregulation
same,SRE-luciferase activity relative to R cells,[1],about half to two-thirds
same,primary tumor size,"[2]; R vs RL tumors, 1, 2 and 3 weeks post-inoculation",Primary tumors of R cells were significantly larger than lipocalin 2 cells
same,reduction of number of metastatic pulmonary nodules,"[2]; RL cells compared to R cells, 3 weeks after s.c. injection",80%
same,lung weight,"[2]; RL compared to R cells, 3 weeks",lung weights were less
